Earlier results, collected in publication PMC8136485, “Were Ancestral Proteins Less Specific?” (Molecular Biology and Evolution, 2021).

Target: NCX1 peptide (Homo sapiens) (UniProt P32418)
Details: cited from earlier work

Chain of hA5 (S100A5) (P33763 whole entry): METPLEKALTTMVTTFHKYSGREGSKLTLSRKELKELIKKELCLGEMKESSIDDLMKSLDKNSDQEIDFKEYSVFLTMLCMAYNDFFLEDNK
Chain of NCX1 peptide (Homo sapiens) (P32418 36-973): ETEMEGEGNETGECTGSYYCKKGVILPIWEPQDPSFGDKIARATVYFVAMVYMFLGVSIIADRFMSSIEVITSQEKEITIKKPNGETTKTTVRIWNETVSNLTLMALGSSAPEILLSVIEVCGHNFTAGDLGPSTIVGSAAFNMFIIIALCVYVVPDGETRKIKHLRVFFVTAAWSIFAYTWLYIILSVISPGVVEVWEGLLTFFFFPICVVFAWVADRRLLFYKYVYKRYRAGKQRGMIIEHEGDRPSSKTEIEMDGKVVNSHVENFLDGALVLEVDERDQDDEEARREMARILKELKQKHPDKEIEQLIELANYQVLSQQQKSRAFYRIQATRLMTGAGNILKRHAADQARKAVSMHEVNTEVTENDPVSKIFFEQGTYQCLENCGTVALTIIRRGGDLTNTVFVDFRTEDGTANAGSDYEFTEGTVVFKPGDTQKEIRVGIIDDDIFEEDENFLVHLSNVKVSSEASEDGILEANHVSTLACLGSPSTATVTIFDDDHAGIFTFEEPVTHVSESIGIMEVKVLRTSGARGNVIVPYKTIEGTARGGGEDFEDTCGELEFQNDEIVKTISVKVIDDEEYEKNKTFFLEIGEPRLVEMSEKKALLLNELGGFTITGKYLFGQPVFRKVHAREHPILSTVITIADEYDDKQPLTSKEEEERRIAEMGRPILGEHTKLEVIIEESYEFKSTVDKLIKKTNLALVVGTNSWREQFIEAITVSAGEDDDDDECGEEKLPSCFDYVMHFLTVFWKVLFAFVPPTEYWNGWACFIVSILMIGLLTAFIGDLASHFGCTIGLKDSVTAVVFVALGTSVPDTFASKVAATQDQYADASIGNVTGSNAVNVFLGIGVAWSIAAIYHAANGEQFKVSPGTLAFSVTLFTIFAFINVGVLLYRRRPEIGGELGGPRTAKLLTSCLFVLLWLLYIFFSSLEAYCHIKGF

hA5 (S100A5) (from UniProt P33763)
Kd: 18 µM
